Experimental findings from patent publication US20210059142 are described below.

Assay in all cases: cell_activity
The test system of data set [1] is FucT1_T01 TAL effector endonuclease, right monomer (engineered). The conditions noted are these: yeast beta-gal assay of the pair 37 C; 0.6 at 30 C.
In data set [2] the test system is XylT_T03 TAL effector endonuclease, right monomer (engineered). As to conditions: yeast beta-gal assay of the pair 37 C; 0.7 at 30 C; protoplast NHEJ 34.4% XylT1, 28.2% XylT2 (Table 3).
Data set [3] deals with XylT_T04 TAL effector endonuclease, right monomer (engineered). The conditions noted are these: yeast beta-gal assay of the pair 37 C; 0.9 at 30 C; protoplast NHEJ 73.8% XylT1, 63.9% XylT2 (Table 3).
Data set [4] has as its system FucT2_T02 TAL effector endonuclease, right monomer (engineered). As to conditions: yeast beta-gal assay of the pair 37 C; 0.7 at 30 C; protoplast NHEJ 46.5% FucT1, 45.0% FucT2 (Table 3).
In data set [5] the test system is FucT1_T02 TAL effector endonuclease, right monomer (engineered). The conditions noted are these: yeast beta-gal assay of the pair 37 C; 0.7 at 30 C; protoplast NHEJ 39.2% FucT1, 24.7% FucT2 (Table 3).
Data set [6] relates to FucT2_T01 TAL effector endonuclease, right monomer (engineered). As to conditions: yeast beta-gal assay of the pair 37 C; 0.8 at 30 C.
In data set [7] the test system is XylT_T04 TAL effector endonuclease, left monomer (engineered). As to conditions: yeast beta-gal assay of the pair 37 C; 0.9 at 30 C; protoplast NHEJ 73.8% XylT1, 63.9% XylT2 (Table 3).
The test system of data set [8] is FucT1_T01 TAL effector endonuclease, left monomer (engineered). As to conditions: yeast beta-gal assay of the pair 37 C; 0.6 at 30 C.
In data set [9] the test system is FucT2_T01 TAL effector endonuclease, left monomer (engineered). The conditions noted are these: yeast beta-gal assay of the pair 37 C; 0.8 at 30 C.
In data set [10] the test system is FucT2_T02 TAL effector endonuclease, left monomer (engineered).
Data set [11] has as its system FucT1_T02 TAL effector endonuclease, left monomer (engineered).
Data set [12] has as its system XylT_T03 TAL effector endonuclease, left monomer (engineered). As to conditions: yeast beta-gal assay of the pair 37 C; 0.7 at 30 C; protoplast NHEJ 34.4% XylT1, 28.2% XylT2 (Table 3).
Data set [13] relates to FucT_T04 TAL effector endonuclease, left monomer (engineered). The conditions noted are these: yeast beta-gal assay of the pair 37 C; 0.5 at 30 C; same with FucT1 and FucT2 spacers.
For data set [14], the system named is FucT_T04 TAL effector endonuclease, right monomer (engineered). The conditions noted are these: yeast beta-gal assay of the pair 37 C; 0.5 at 30 C; same with FucT1 and FucT2 spacers.

“AATAAGCAATGGCGCAA (double strand) [FucT1_T01 target sequence 2]” showed an activity (relative to I-SceI) in data set [1] of 0.8. For the sequence “ATCACTCTCTATCTCTA (double strand) [XylT_T03 target sequence 2]”, the activity (relative to I-SceI) in data set [2] came out at 0.9. In data set [3], “CTCTACTTCTCTTCCCA (double strand) [XylT_T04 target sequence 2]” displayed an activity (relative to I-SceI) of 0.9. In the case of “CTCTGTTCGTTGCCCTA (double strand) [FucT_T02 target sequence 2]”, the activity (relative to I-SceI) in [4] and in data set [5] was 0.9 each time.

As to “GATAAACAATGGCGCAA (double strand) [FucT2_T01 target sequence 2]”, the activity (relative to I-SceI) in [6] turned out to be 0.9. “TCTCTTCGCTCTCAACT (double strand) [XylT_T04 target sequence 1]” displayed an activity (relative to I-SceI) in data set [7] of 0.9. With “TGAGATCGGCGTCAAAT (double strand) [FucT1_T01 target sequence 1]”, the activity (relative to I-SceI) in data set [8] was 0.8. As to “TGAGATCGTCGTCAAAT (double strand) [FucT2_T01 target sequence 1]”, the activity (relative to I-SceI) in data set [9] amounted to 0.9.

With “TTCAAACGCACCCAATA (double strand) [FucT1_T02 target sequence 1]”, in data set [10] (pair at endogenous FucT1, 1-bp polymorphism in half-site, N. benthamiana protoplasts, control 0.79%), the activity is 46.5 % NHEJ. The same sequence displayed an activity (relative to I-SceI) in data set [11] (yeast beta-gal assay of the pair 37 C, 0.7 at 30 C, protoplast NHEJ 39.2% at FucT1 (Table 3)) of 0.9. “TTCAAACGCACCCGATA (double strand) [FucT2_T02 target sequence 1]” displayed an activity (relative to I-SceI) in data set [10] (yeast beta-gal assay of the pair 37 C, 0.7 at 30 C, protoplast NHEJ 45.0% at FucT2 (Table 3)) of 0.9. Moreover, in data set [11] (pair at endogenous FucT2, 1-bp polymorphism in half-site, N. benthamiana protoplasts, control 0.14%), the activity worked out at 24.7 % NHEJ. With “TTCTTGTTTCTCTCTTC (double strand) [XylT_T03 target sequence 1]”, the activity (relative to I-SceI) in data set [12] was found to be 0.9.

“TTGCCTCTGTTCGTTGC (double strand) [FucT_T04 target sequence 1]” had an activity (relative to I-SceI) in data set [13] of 0.6. In data set [14], “TTTCTGGTTCGACTCGA (double strand) [FucT_T04 target sequence 2]” had an activity (relative to I-SceI) of 0.6.
